Protein stability index data for 72 sequences are collected here from the supplement of paper PMC10567573.

± gives the standard deviation.

The series in a line: protein stability index of a GFP-peptide fusion (GPS, HEK-293T) (PSI 1-6); higher = more stable.
Setting [1] is: treatment: DMSO, c terminus: a fixed tail appended.
Setting [2] is: treatment: MLN4924 1 uM, 8 h, c terminus: a fixed tail appended.
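Note: 24-mer peptide tiles fused after GFP, lentivirally expressed, FACS-sorted into six equal bins by GFP/DsRed ratio, decoded by Illumina sequencing, PSI is the read-weighted mean bin number.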

For the sequence DHQDSDEFCRNTLCAPEVISLINT [FAF2], the protein stability index was 3.72 ± 0.37 under setting [1] and 3.67 ± 0.38 under setting [2].

As for FDVVVCDQVSACIPVFRLARRRKK [ALG2], the protein stability index runs as follows: under setting [1], 2.59 ± 0.28; under setting [2], 2.62 ± 0.2.

On to QKNKKILKSAKDLPPDALIIEYRG [KMT2E], for which the protein stability index under setting [1] came out at 2.82 ± 0.43 and the protein stability index under setting [2] stood at 3.07 ± 0.37.

On to LPSWADICTNLCEALQNFFSLACS [M1AP], for which the protein stability index came out at 2.89 ± 0.31 under setting [1] and 2.9 ± 0.14 under setting [2].

With GEYPRWDAWSGSNAYHIERLMSFR [CRYBA1], the protein stability index runs as follows: under setting [1], 2.17 ± 0.22; under setting [2], 2.41 ± 0.28.

On to LTFHGLILRSQLVTLLVRGVCYSE [CLCN6], for which the protein stability index is, setting by setting: under setting [1], 2.98 ± 0.35; under setting [2], 3.03 ± 0.26.

For LFPQWHLPIKIAAIIASLTFLYTL [STEAP1], the protein stability index came out at 3.39 ± 0.8 under setting [1] and 3.13 ± 0.48 under setting [2].

For EVEELDNWQPAVPLMHMLHLSGAL [SPATS1], the protein stability index by setting is: under setting [1], 2.18 ± 0.27; under setting [2], 2.16 ± 0.35.

Regarding NMMKVLRGHQNWVYSCAFSPDSSM [WSB1], the protein stability index under setting [1] amounted to 2.37 ± 0.96 and the protein stability index under setting [2] stood at 2.64 ± 0.54.

Regarding METGRWKKINTEGDVPPSMSGSCA [KLHDC2], the protein stability index amounted to 4.01 ± 0.34 under setting [1] and 4.21 ± 0.097 under setting [2].

Regarding VSFSTGAGGWSNHHFCVILLGFLP [BET1L], the protein stability index was found to be 2.82 ± 0.39 under setting [1] and 2.8 ± 0.36 under setting [2].

Consider EMREIRRKLRELQLRNCLRILMGE [BEX3], for which the protein stability index turned out to be 2.35 ± 0.38 under setting [1] and 2.28 ± 0.38 under setting [2].

Sequence QFLNDQISVQNYKQVCKIAALHGL [KLHL14] came in with a protein stability index under setting [1] of 2.14 ± 0.28 and a protein stability index under setting [2] of 2.17 ± 0.16.

For the sequence GKRRKDEISVDSLDFSKKILHTAW [PPP2R2B], the protein stability index is, setting by setting: under setting [1], 2.34 ± 0.2; under setting [2], 2.52 ± 0.049.

Consider GWKSMIQSHPHLVAEAFRALASAQ [SPOPL], for which the protein stability index by setting is: under setting [1], 2.4 ± 0.44; under setting [2], 2.3 ± 0.17.

Regarding CSKSFRQRAGLIMHQVTHFRGLI [ZNF449], the protein stability index (treatment: DMSO, c terminus: native) stood at 2.92 ± 0.45 and the protein stability index (treatment: MLN4924 1 uM, 8 h, c terminus: native) turned out to be 3.08 ± 0.35.

As for PGACPALGTKSCSSSCAVHDLIFW [RTN3], the protein stability index runs as follows: under setting [1], 2.35 ± 0.33; under setting [2], 2.29 ± 0.39.

ERQEEQSAAIHISETLEQKPHFES [EPB41L3]: the protein stability index was 5.43 ± 0.15 under setting [1] and 5.38 ± 0.28 under setting [2].

Consider MELLRTITYQPAASTKMCEQALGK [PLK2], for which the protein stability index came out at 2.46 ± 0.47 under setting [1] and 3.06 ± 0.43 under setting [2].

FQNFSLHDPLYGKLFSTYLRPPHT [LPCAT4] gave a protein stability index under setting [1] of 2.27 ± 0.36 and a protein stability index under setting [2] of 2.12 ± 0.19.

As to RMGDADYLAAWHRLVLPIAYEFNP [HDAC6], the protein stability index reads like this: under setting [1], 2.27 ± 0.56; under setting [2], 2.3 ± 0.44.

GKVQDIKAREKDGKGRTASPINSP [FSD1] displayed a protein stability index under setting [1] of 4.99 ± 0.37 and a protein stability index under setting [2] of 5.25 ± 0.24.

Consider IAERLGCTLPQLAIAWCLRNEGVS [KCNAB2], for which the protein stability index was 2.88 ± 0.44 under setting [1] and 2.71 ± 0.66 under setting [2].

As for MCKEHEDEKINIYCLTCEVPTCSM [TRIM63], the protein stability index under setting [1] was determined as 3.35 ± 0.26 and the protein stability index under setting [2] is 3.27 ± 0.35.

Take QSFTLRGDHRSPASAQKFSSRSTV [NET1]: the protein stability index by setting is: under setting [1], 3.92 ± 0.097; under setting [2], 3.9 ± 0.3.

In the case of LKYENDYPSVILRDPLQTDTLQND [ETS1], the protein stability index stood at 4.2 ± 0.31 under setting [1] and 4.53 ± 0.34 under setting [2].

As to MEVLAAETTSQQERLQAIAEKRKR [PALM], the protein stability index is, setting by setting: under setting [1], 5.15 ± 0.27; under setting [2], 5.23 ± 0.32.

On to KEDIDLIDILWRQDIDLGAGREVF [NFE2L1], for which the protein stability index amounted to 2.75 ± 0.57 under setting [1] and 3.47 ± 0.88 under setting [2].

Turning to ELKVKDSQPIDLSACTVALHIFQL [TRIP13], the protein stability index is 2.58 ± 0.47 under setting [1] and 2.15 ± 0.6 under setting [2].

Turning to SRKNATQPPNAEEESGSSSASEEE [INTS3], the protein stability index amounted to 5.53 ± 0.12 under setting [1] and 5.71 ± 0.14 under setting [2].

With AMPPYGQGPPMVPPYQGGPPRPPM [ZNF207], the protein stability index runs as follows: under setting [1], 3.79 ± 0.45; under setting [2], 3.92 ± 0.2.

AVRCASGRCTVRDFIHRHCQDQNV [SDE2]: the protein stability index under setting [1] is 2.59 ± 0.41 and the protein stability index under setting [2] stood at 2.39 ± 0.5.

With VKRLLRSDAEAVSTRWEVIAEDGT [TAF7L], the protein stability index reads like this: under setting [1], 3.69 ± 0.3; under setting [2], 3.73 ± 0.64.

As for LLGRERDRVQVERDGLAEDLAALK [PRPH], the protein stability index is 4.2 ± 0.26 under setting [1] and 4.37 ± 0.18 under setting [2].

Sequence SLRSSSSKLAQLTLEQILEHLDNL [INTS3] had a protein stability index under setting [1] of 2.31 ± 0.2 and a protein stability index under setting [2] of 2.55 ± 0.26.

With CTEILTEKKDTITNDSLSLKPSWF [MIA2], the protein stability index reads like this: under setting [1], 3.23 ± 0.28; under setting [2], 3.42 ± 0.42.

The sequence GIPKGVMLSHDNITWIAGAVTKDF [ACSBG2] showed a protein stability index under setting [1] of 2.67 ± 0.15 and a protein stability index under setting [2] of 2.74 ± 0.15.

With NTKLRQAERLFENQLVGPESIAHI [APMAP], the protein stability index reads like this: under setting [1], 3.22 ± 0.12; under setting [2], 3.42 ± 0.48.

Turning to RYCMQLSQIQGLIGSVEEQLAQLR [KRT16], the protein stability index by setting is: under setting [1], 2.28 ± 0.45; under setting [2], 2.49 ± 0.28.

As for VDRWPAPVPGKTLHLPIMGVVMKV [DENND6A], the protein stability index by setting is: under setting [1], 2.63 ± 0.39; under setting [2], 2.4 ± 0.36.

Consider VSTNTAMIQTSKTEITELRRTLQG [KRT13], for which the protein stability index reads like this: under setting [1], 4.08 ± 0.3; under setting [2], 4.06 ± 0.22.

Regarding VRVNVLLSRYLIEPCGPGKSKLTY [DLC1], the protein stability index runs as follows: under setting [1], 3.25 ± 0.83; under setting [2], 2.68 ± 0.38.

As to SQLPQVLHVSLGQKLVAAYVLGLL [MOSPD3], the protein stability index reads like this: under setting [1], 3.26 ± 0.94; under setting [2], 2.75 ± 1.2.

In the case of MLKRPVLLHLHQTAHADEFDCPSE [STEAP1], the protein stability index reads like this: under setting [1], 3.73 ± 0.29; under setting [2], 3.73 ± 0.48.

In turn, ESSSRGEAGAPGEEDIQGPTKADT [CHGB] returned a protein stability index under setting [1] of 5.64 ± 0.29 and a protein stability index under setting [2] of 5.43 ± 0.32.

Take KKTHETLSHAGQKATAAFSNVGTA [TPD52L1]: the protein stability index by setting is: under setting [1], 4.44 ± 0.28; under setting [2], 4.34 ± 0.21.

With DPVRQCAECALVSLKEAEFYDKQL [ZFYVE21], the protein stability index amounted to 3.62 ± 0.046 under setting [1] and 3.67 ± 0.32 under setting [2].

On to PQGAVLVQREKDLPNYNWNSFGLR [KISS1], for which the protein stability index was determined as 3.04 ± 0.17 under setting [1] and 3.13 ± 0.32 under setting [2].

With GLPPSGSWQDLKDHMREAGDVCYA [SRSF1], the protein stability index under setting [1] was 3.65 ± 0.25 and the protein stability index under setting [2] was determined as 3.83 ± 0.48.

For EYQVLLDVKARLEGEIATYRHLLE [KRT36], the protein stability index reads like this: under setting [1], 2.54 ± 0.32; under setting [2], 2.53 ± 0.29.

In the case of LPSENLGKEPLDPDPSHSPSDKVG [TOR1AIP2], the protein stability index runs as follows: under setting [1], 5.42 ± 0.22; under setting [2], 5.494 ± 0.038.

On to HRRRNQLIKKKKEELEAKRLQCPF [FAM107A], for which the protein stability index was found to be 3.95 ± 0.38 under setting [1] and 4.22 ± 0.16 under setting [2].

On to SLQLVFGIELMEVDPIGHLYIFAT [MAGEA3], for which the protein stability index by setting is: under setting [1], 2.91 ± 0.23; under setting [2], 2.74 ± 0.76.

With EAYLASLRADQEKERKKREERERK [FAF2], the protein stability index is 5.33 ± 0.35 under setting [1] and 5.46 ± 0.23 under setting [2].

Regarding AFLGDAEIIELLILSGARVNAKDN [ANKRD44], the protein stability index was determined as 2.45 ± 0.73 under setting [1] and 2.32 ± 0.23 under setting [2].

In the case of WCGISTDMWRSENQNRAYVTLAAH [ZBED1], the protein stability index came out at 2.37 ± 0.4 under setting [1] and 2.07 ± 0.05 under setting [2].

For the sequence APKPDAAPSIDLFSTDAFSSPPQG [SNAP91], the protein stability index was 4.73 ± 0.14 under setting [1] and 4.84 ± 0.14 under setting [2].

With CSEDWVGYQRKCYFISTVKRSWTS [CD69], the protein stability index under setting [1] is 2.36 ± 0.33 and the protein stability index under setting [2] is 2.65 ± 0.49.

In the case of PTQLRALNLTEGFAVLHWKPPQNP [TNXB], the protein stability index was 2.8 ± 0.66 under setting [1] and 3.04 ± 0.63 under setting [2].

As for LHEALQDYEAGQHMEDPRRAGKML [ESRRG], the protein stability index reads like this: under setting [1], 4.74 ± 0.29; under setting [2], 4.68 ± 0.38.

As to PAAGLDVTQPCGDCGTIQENWVCL [HDAC6], the protein stability index runs as follows: under setting [1], 2.68 ± 0.25; under setting [2], 2.79 ± 0.25.

Turning to ARGTGSGEDSSTSSSTPLEDEEPQ [RTN2], the protein stability index under setting [1] turned out to be 5.7 ± 0.15 and the protein stability index under setting [2] came out at 5.62 ± 0.24.

QLQALNRRFQQTQYLALPERAELA [DLX1]: the protein stability index under setting [1] is 3.05 ± 0.28 and the protein stability index under setting [2] is 3.23 ± 0.085.

In turn, YVEVKEGKTWKQICDKHWTAKNSR [LOXL2] displayed a protein stability index under setting [1] of 2.62 ± 0.8 and a protein stability index under setting [2] of 3.28 ± 0.61.

As for TLHNLSHHREGLLAIFKSGGIPAL [CTNNB1], the protein stability index runs as follows: under setting [1], 2.4 ± 0.11; under setting [2], 2.38 ± 0.24.

In the case of DLIDNLKEAQYIRTERVEQAFRAI [PCMTD1], the protein stability index is, setting by setting: under setting [1], 2.29 ± 0.17; under setting [2], 2.27 ± 0.14.

KDIDMFSMCEHHLVPFVGKVHIGY [GCH1]: the protein stability index by setting is: under setting [1], 2.34 ± 0.76; under setting [2], 2.27 ± 0.36.

For the sequence YRGMLDTHHKLCTFILKNPPENSD [EIF5], the protein stability index was determined as 3.29 ± 0.2 under setting [1] and 3.25 ± 0.18 under setting [2].

In turn, SNQEVLQSCLLVIFATKPHVLPAV [PYCR3] showed a protein stability index under setting [1] of 3.34 ± 0.4 and a protein stability index under setting [2] of 3.01 ± 0.34.

With HFLSKMPEAEENKQIIRKHAQTFV [CCND1], the protein stability index is, setting by setting: under setting [1], 3.39 ± 0.21; under setting [2], 3.43 ± 0.29.

With SEEQLQEPITGWRKTVCHNGVLGL [LPCAT4], the protein stability index is 3.58 ± 0.45 under setting [1] and 3.64 ± 0.38 under setting [2].

Regarding VSYQLADGGEPQSVQVDGQARTQK [TNXB], the protein stability index reads like this: under setting [1], 5.184 ± 0.024; under setting [2], 5.21 ± 0.1.
